Reference: patent publication US8703143 (PHILOGEN S P A, dated 2014)

How the values were obtained:
[1] = biological target: T1, recombinant ED-B domain of human fibronectin with a carboxy terminal hexahistidine tag (human, UniProt P02751 1266-1356); test: BIAcore, monomeric scFv on immobilised antigen; Kd = koff/kon
T1 construct: domain: ED-B; In BIAcore chemically immobilised at the N-terminal amino group; also called rec ED-B; recombinant ED-B peptide
Procedure: (§1) Binding of monovalent scFv at various concentrations in the 0.1-1 μM range in PBS was measured on a BIAcore machine (Pharmacia Biosensor), using the following antigens: (i) 1000 Resonance Units (RU) of biotinylated recombinant FN fragment 7B89 immobilised on a streptavidin coated chip, which was bound specifically by 250 RU of scFv; (ii) 200 RU of recombinant ED-B, chemically immobilised at the N-terminal amino group, which was bound specifically by 600 RU of scFv; (iii) 3500 RU of ED-B-rich fibronectin WI38VA (see Example 3), which was bound specifically by 150 RU of scFv. Kinetic analysis of the data was performed according to the manufacturers' instructions. On the basis of qualitative BIAcore analysis of antibody-containing supernatants, one affinity-matured version of each scFv clone was selected: clone CGS-1 from selection with the 78B9 fragment and CGS-2 from selection with ED-B recombinant FN fragment. The association rate constants ($kon$) and dissociation rate constants ($koff$) are shown in Table 1, together with the calculated equilibrium dissociation constants (Kd) of both scFvs and the original clone 28SI. […] The improvement was due mainly to a slower kinetic dissociation constant (-10^-4 s^-1), as measured with monomeric antibody preparations (not shown).

[2] = biological target: T2, fibronectin purified from the conditioned medium of the SV40-transformed cell line WI38VA13 (human, UniProt P02751 32-2477); test: as above
T2 construct: mature; Mixture of isoforms, most of them B+; also called FN WI38VA; WI38VA FN
Procedure: as §1

[3] = biological target: T3, recombinant FN fragment 7B89 (human, UniProt P02751 1173-1537, limits assumed, biotinylated for BIAcore (sites not given)); test: as above
T3 construct: domain: type III homology repeats 7B89; also called rec FN7B89; 78B9 [sic]
Procedure: as §1

[4] = biological target: T4, native FN 110 kD (B-) thermolysin fragment (human, UniProt P02751-1 722-1630, limits assumed); test: ELISA
T4 construct: domain: thermolysin treated FN domain 4, without ED-B; also called 110 kD protein

[5] = biological target: T5, recombinant FN domain 6 (human, UniProt P02751 1086-1172, limits assumed); test: ELISA
T5 construct: domain: FN-6; also called rec FN-6; rec FN6

[6] = biological target: T6, mouse B-FN (mouse, UniProt P11276 33-2477, limits assumed); test: immunohistochemistry
T6 construct: also called mouse B+ fibronectin

[7] = biological target: T4, native FN 110 kD (B-) thermolysin …; test: ELISA on coated antigen, background subtracted
Procedure: (§2) All antigens used in ELISA were diluted in PBS to between 50-100 μg/ml and coated at 4° C. overnight onto Immuno-Plate wells (Nunc, Roskilde, Denmark). Unbound antigen was removed with PBS and plates were then blocked with PBS containing 3% (w/v) bovine serum albumin (BSA) for 2 h at 37° C. This was followed by four washes with PBS containing 0.05% Tween 20 (PBST). Antibodies were then allowed to bind at 37° C. for 1.5 h; scFvs were preincubated with an antiserum directed against the tag sequence: mAb M2 [Kodak, New Haven Conn.] for the FLAG tag or 9E10 [ATCC, Rockville, Md.] for the myc tag. Control antibodies tested were mAbs BC-1 and IST-6. After four washes with PBST, the plates were incubated for 1 h at 37° C. with 1:2000 diluted (in PBST+3% BSA) biotinylated goat anti-mouse IgG (Bio-SPA Division, Milan, Italy). The washes were repeated and Streptavidin-biotinylated alkaline phosphatase complex (Bio-SPA Division, Milan, Italy) was added (1:800 diluted in PBST containing 2 mM MgCl2) for 1 h at 37° C. The reaction was developed using Phosphatase substrate tablets (Sigma) in 10% diethanolamine, pH 9.8 and the optical density was read at 405 nm.

[8] = biological target: T5, recombinant FN domain 6; test: ELISA on coated antigen, background subtracted
Procedure: as §2

[9] = biological target: T1, recombinant ED-B domain of human …; test: ELISA on coated antigen, background subtracted
Procedure: as §2

[10] = biological target: T2, fibronectin purified from the …; test: ELISA on coated antigen, background subtracted
Procedure: as §2

[11] = biological target: T7, recombinant FN fragment 789 (human, UniProt P02751-1 1173-1446, limits assumed); test: ELISA on coated antigen, background subtracted
T7 construct: domain: type III homology repeats 789; the text treats it as lacking ED-B; also called rec FN789
Procedure: as §2

[12] = biological target: T3, recombinant FN fragment 7B89; test: ELISA on coated antigen, background subtracted
Procedure: as §2

[13] = biological target: T8, native FN 120 kD (B+) thermolysin fragment (human, UniProt P02751 722-1721, limits assumed); test: ELISA on coated antigen, background subtracted
T8 construct: domain: thermolysin treated FN domain 4, containing ED-B; also called 120 kD protein; 120 kD domain
Procedure: as §2

[14] = biological target: T7, recombinant FN fragment 789; test: immunoblot of recombinant FN proteins expressed in E. coli
Procedure: The fine specificity of CGS-1 and CGS-2 was investigated further by immunoblotting using recombinant FN fragments and fusion proteins with or without the ED-B sequence. The FN fusion proteins were prepared as described by Carnemolla et al (1989). The results of these experiments are shown in FIG. 3; for the association of the schematic diagram to the structure of the domains of human FN, see Carnemolla et al, 1992.

[15] = biological target: T9, 85 kD thermolysin fragment of FN from WI38VA cells (human, UniProt P02751 722-1351, limits assumed); test: immunoblot
T9 construct: domain: 85 kD fragment spanning repeats 2-7 in addition to the N-terminus of ED-B; also called 85 kD fragment; 85 kD domain
Procedure: (§3) The antigens used for ELISA and immunoblotting were prepared as follows. FN was purified from human plasma and from the conditioned medium of the WI38VA13 cell line as previously reported (Zardi et al, 1987). Purified FNs were digested with thermolysin (protease type X; Sigma Chemical Co.) as reported by Carnemolla et al (1989). Native FN 110 kD (B−) and native FN 120 kD (B+) fragments (see FIG. 2) were purified from a FN digest as previously reported (Borsi et al, 1991). The large isoform of tenascin-C was purified as reported by Saginati et al (1992). Recombinant proteins were expressed and purified as described in Example 1. SDS-PAGE and Western blotting were carried out as described by Carnemolla et al (1989).
(§4) On the left hand side of FIG. 2B is a Coomassie stained gel of the protein fractions analysed by immunoblotting. Plasma FN (lane 1) and thermolysin digests of the protein (lane 3, containing the 110 kD protein, and lane 4, containing digested 110 kD protein) were not recognised by CGS-1 and CGS-2. In contrast, ED-B-rich FN from WI38VA cells, both intact (lane 2) and after increasing thermolysin digestion (lanes 5, 6 and 7) was recognised by both scFv fragments. […]

[16] = biological target: T1, recombinant ED-B domain of human …; test: BIAcore, monomeric scFv on immobilised antigen
Procedure: as §1

[17] = biological target: T2, fibronectin purified from the …; test: BIAcore, monomeric scFv on immobilised antigen
Procedure: as §1

[18] = biological target: T3, recombinant FN fragment 7B89; test: BIAcore, monomeric scFv on immobilised antigen
Procedure: as §1

[19] = biological target: T10, chicken B-FN (chicken, UniProt P11722 22-2483, limits assumed); test: immunohistochemistry
T10 construct: also called chicken B+ fibronectin

[20] = biological target: T4, native FN 110 kD (B-) thermolysin …; test: immunoblot
Procedure: as §3, §4

T3 sequence (P02751 other isoform, or with tags, fused parts or gaps limits assumed): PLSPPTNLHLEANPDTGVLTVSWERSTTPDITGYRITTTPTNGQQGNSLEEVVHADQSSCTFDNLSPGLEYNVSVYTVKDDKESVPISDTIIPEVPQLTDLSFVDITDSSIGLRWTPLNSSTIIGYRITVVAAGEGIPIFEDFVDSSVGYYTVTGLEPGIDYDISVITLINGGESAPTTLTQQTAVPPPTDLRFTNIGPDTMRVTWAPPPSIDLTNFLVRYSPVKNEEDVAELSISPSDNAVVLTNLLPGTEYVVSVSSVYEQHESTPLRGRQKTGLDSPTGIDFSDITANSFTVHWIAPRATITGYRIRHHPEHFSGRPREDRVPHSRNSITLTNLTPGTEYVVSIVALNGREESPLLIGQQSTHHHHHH
T7 sequence (P02751 other isoform, or with tags, fused parts or gaps limits assumed): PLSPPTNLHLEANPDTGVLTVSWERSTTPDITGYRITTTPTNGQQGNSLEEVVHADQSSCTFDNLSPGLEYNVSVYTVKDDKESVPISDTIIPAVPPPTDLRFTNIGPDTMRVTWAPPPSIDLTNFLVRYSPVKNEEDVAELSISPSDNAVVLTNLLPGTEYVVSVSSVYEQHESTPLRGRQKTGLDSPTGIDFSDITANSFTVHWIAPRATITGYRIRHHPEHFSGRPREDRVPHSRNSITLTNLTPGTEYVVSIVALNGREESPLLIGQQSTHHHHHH
T4 sequence (P02751 other isoform, or with tags, fused parts or gaps limits assumed): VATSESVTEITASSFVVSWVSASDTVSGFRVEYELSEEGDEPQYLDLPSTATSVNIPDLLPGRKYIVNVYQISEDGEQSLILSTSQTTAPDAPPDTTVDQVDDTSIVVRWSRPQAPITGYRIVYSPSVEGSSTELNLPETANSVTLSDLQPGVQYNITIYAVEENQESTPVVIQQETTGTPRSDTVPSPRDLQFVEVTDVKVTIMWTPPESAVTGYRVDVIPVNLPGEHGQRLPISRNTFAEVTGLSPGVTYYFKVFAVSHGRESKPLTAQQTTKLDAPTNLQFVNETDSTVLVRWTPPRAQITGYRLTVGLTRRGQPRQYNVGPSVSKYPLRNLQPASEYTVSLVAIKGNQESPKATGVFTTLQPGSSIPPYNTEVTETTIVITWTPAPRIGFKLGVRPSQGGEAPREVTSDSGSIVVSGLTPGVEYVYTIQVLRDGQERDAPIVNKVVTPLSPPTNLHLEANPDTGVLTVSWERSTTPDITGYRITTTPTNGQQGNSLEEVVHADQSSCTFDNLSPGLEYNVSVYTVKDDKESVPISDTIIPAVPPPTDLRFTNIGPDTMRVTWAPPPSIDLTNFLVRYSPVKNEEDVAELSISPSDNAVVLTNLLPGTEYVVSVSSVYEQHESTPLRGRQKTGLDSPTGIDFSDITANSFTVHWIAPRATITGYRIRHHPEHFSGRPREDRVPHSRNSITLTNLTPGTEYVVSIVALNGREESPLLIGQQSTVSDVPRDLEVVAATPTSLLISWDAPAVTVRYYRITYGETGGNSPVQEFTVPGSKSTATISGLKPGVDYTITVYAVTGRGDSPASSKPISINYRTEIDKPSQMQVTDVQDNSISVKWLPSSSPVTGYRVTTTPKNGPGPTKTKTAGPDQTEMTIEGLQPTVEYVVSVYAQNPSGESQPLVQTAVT
T5 sequence (P02751 other isoform, or with tags, fused parts or gaps limits assumed): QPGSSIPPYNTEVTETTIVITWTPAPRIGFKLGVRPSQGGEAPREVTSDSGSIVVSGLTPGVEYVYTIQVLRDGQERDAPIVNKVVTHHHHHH
T1 sequence (P02751 other isoform, or with tags, fused parts or gaps limits assumed): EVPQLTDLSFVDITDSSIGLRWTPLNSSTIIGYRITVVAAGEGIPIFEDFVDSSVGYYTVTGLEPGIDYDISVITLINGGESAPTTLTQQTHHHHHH
T2 sequence (P02751 32-2477): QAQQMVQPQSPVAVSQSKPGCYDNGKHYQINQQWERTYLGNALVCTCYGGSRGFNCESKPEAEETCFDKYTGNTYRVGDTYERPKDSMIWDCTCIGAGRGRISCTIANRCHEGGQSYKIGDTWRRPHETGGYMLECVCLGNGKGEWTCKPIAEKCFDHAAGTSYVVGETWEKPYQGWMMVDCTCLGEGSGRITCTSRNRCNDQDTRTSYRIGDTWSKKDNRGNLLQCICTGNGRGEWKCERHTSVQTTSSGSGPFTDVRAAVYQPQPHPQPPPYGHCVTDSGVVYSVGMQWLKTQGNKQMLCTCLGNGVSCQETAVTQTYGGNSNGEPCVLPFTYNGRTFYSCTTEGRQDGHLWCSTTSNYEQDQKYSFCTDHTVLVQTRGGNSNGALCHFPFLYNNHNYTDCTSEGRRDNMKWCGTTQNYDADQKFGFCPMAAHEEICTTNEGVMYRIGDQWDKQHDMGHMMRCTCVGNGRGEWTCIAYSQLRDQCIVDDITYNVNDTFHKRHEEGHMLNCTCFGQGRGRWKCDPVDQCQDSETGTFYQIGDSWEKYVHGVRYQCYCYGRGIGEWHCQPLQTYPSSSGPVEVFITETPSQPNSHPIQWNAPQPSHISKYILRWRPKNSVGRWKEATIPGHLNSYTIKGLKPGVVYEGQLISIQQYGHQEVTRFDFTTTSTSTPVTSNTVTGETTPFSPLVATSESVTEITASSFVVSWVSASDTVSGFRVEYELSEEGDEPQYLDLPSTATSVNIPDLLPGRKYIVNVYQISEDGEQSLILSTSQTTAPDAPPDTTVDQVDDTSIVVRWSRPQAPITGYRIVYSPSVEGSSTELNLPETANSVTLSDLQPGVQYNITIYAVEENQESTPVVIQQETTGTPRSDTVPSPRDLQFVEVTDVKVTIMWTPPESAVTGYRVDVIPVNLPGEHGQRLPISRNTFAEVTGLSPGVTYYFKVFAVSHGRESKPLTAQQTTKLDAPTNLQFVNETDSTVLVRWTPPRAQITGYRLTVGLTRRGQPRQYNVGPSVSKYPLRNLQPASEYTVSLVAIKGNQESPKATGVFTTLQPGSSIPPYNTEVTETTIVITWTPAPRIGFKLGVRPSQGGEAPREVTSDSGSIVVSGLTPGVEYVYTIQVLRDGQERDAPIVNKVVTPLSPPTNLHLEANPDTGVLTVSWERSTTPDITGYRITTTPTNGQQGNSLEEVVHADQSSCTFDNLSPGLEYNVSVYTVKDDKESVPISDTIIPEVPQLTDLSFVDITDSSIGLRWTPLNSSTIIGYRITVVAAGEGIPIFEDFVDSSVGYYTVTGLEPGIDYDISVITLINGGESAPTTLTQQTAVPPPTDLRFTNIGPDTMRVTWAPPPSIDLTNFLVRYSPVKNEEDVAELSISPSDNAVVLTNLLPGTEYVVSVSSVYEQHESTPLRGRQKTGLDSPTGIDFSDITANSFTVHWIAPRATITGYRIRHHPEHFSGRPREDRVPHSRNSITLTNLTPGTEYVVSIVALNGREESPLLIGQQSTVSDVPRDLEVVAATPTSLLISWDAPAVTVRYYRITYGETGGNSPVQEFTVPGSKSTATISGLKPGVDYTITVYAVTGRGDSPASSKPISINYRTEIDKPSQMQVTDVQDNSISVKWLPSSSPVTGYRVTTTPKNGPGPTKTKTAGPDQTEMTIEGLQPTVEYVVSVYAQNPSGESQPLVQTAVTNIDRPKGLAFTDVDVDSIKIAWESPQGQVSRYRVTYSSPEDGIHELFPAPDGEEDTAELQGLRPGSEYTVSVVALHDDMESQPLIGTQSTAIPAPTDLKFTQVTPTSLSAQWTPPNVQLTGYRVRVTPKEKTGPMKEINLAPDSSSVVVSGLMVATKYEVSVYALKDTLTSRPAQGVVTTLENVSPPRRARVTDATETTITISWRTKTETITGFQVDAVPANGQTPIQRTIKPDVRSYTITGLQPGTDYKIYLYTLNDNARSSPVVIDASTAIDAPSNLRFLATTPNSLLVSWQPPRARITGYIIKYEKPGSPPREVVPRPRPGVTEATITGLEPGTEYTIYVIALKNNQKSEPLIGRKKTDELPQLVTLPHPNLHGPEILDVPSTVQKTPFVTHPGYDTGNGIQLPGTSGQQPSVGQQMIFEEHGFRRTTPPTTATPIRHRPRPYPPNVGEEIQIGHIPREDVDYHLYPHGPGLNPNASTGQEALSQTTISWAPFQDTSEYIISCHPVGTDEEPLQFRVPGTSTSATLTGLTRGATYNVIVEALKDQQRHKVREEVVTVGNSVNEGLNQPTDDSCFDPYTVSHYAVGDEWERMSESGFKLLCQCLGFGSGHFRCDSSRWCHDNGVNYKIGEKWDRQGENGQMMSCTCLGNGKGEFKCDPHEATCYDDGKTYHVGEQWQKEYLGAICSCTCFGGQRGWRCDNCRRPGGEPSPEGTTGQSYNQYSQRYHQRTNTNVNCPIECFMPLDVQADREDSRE
T9 sequence (P02751 722-1351 limits assumed): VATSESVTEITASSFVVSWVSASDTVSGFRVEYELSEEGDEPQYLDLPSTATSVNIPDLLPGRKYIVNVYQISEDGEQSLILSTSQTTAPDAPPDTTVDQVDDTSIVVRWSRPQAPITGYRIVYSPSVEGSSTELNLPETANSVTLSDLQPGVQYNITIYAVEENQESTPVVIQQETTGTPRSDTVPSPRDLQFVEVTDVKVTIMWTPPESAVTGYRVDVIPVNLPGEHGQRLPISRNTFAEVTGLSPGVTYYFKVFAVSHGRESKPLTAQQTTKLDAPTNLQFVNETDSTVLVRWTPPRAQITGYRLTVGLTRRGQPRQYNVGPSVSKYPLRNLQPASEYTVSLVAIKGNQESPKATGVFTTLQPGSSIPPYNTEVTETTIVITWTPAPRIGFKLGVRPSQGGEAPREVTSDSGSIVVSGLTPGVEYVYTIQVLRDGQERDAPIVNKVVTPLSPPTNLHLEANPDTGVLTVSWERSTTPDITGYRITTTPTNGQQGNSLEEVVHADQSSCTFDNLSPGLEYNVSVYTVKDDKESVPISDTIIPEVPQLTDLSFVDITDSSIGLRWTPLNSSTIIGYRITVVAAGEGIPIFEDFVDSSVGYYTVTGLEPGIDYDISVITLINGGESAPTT

Kd [1] [nM]	Kd [2] [nM]	Kd [3] [nM]	binding result [5]	binding result [6]	OD at 405 nm [7] [OD 405 nm]	OD at 405 nm [8] [OD 405 nm]	OD at 405 nm [9] [OD 405 nm]	OD at 405 nm [10] [OD 405 nm]	OD at 405 nm [11] [OD 405 nm]	OD at 405 nm [12] [OD 405 nm]	OD at 405 nm [13] [OD 405 nm]	binding result [14]	koff [16] [s⁻¹]	kon [16] [M⁻¹ s⁻¹]	koff [17] [s⁻¹]	kon [17] [M⁻¹ s⁻¹]	koff [18] [s⁻¹]	kon [18] [M⁻¹ s⁻¹]	Binder	also measured
54	12	35	no binding	binds	0.03	0.01	1.21	1.16	0.01	1.11	0.82	no binding	0.007	130000	0.005	410000	0.0039	110000	scFv CGS-1 (scFv, V domains shown, claims 6 and 8 say that 8 is a VH and 10 a VL; VH-linker-VL order follows from the cloning primers; Monomeric, FPLC-purified, in BIAcore; in the ELISA detected through a FLAG or myc tag) VH: QVQLVESGGGLVQPGGSLRLSCAVSGFTFSSYAMSWVRQAPGKGLEWVSAISGSGGSTYYADSVKGRFTISRDNSKNTLYLQMNSLRAEDTAVYYCARSLPKWGQGTLVTVSR VL: SSELTQDPAVSVALGQTVRITCQGDSLRSYYASWYQQKPGQAPVLVTYGKNNRPSGIPDRFSGSSSGNTASLTITGAQAEDEADYYCNSSPVVLNGVVFGGGTKLTVL	binding result [4]: no binding; binding result [15]: no binding
1.1	2.4	2.1	no binding	binds	0.01	0.01	1.32	0.72	0.01	1.02	0.81	no binding	0.00015	130000	0.00065	290000	0.00023	110000	scFv CGS-2 (scFv, V domains shown, claims 7 and 9 say that 9 is a VH and 11 a VL; Monomeric, FPLC-purified, in BIAcore) VH: not shown VL: SSELTQDPAVSVALGQTVRITCQGDSLRSYYASWYQQKPGQAPVLVIYGKNNRPSGIPDRFSGSSSGNTASLTTTGAQAEDEADYYCNSSPFEHNLVVFGGGTKLTVL	binding result [19]: binds; binding result [20]: no binding
